According to paper PMC9063327:

Assays:
purified protein [1] = substrate: CC(C)C(=O)C(=O)O; assay: purified protein; assay type: biochemical, Lactococcus lactis; settings: 50 mM potassium phosphate, 1 mM MgSO4, 0.5 mM thiamine pyrophosphate, 0.2 mM NADH; brackets are 95% CI
purified protein [2] = substrate: CC(=O)C(=O)O; assay: purified protein; assay type: biochemical, Lactococcus lactis; settings: 50 mM potassium phosphate, 1 mM MgSO4, 0.5 mM thiamine pyrophosphate, 0.2 mM NADH; brackets are 95% CI

B1: KivD (Lactococcus lactis subsp. lactis) (protein)
chain: MYTVGDYLLDRLHELGIEEIFGVPGDYNLQFLDQIISHKDMKWVGNANELNASYMADGYARTKKAAAFLTTFGVGELSAVNGLAGSYAENLPVVEIVGSPTSKVQNEGKFVHHTLADGDFKHFMKMHEPVTAARTLLTAENATVEIDRVLSALLKERKPVYINLPVDVAAAKAEKPSLPLKKENSTSNTSDQEILNKIQESLKNAKKPIVITGHEIISFGLEKTVTQFISKTKLPITTLNFGKSSVDEALPSFLGIYNGTLSEPNLKEFVESADFILMLGVKLTDSSTGAFTHHLNENKMISLNIDEGKIFNERIQNFDFESLISSLLDLSEIEYKGKYIDKKQEDFVPSNALLSQDRLWQAVENLTQSNETIVAEQGTSFFGASSIFLKSKSHFIGQPLWGSIGYTFPAALGSQIADKESRHLLFIGDGSLQLTVQELGLAIREKINPICFIINNDGYTVEREIHGPNQSYNDIPMWNYSKLPESFGATEDRVVSKIVRTENEFVSVMKEAQADPNRMYWIELILAKEGAPKVLKKMGKLFAEQNKS
notes: full length, pET28a, N-terminal His tag (kept), expressed in E. coli BL21(DE3), Ni-NTA purified; gene from pGEM-kivD
**Q.** With B1 as the protein, how does the Km (purified protein [1]) read?
**A.** 4.18 (4.08, 4.23) mM

**Q.** What about the Vmax (purified protein [1]) of the same protein?
**A.** 0.0409 (0.038, 0.044)

**Q.** And the kcat (purified protein [1])?
**A.** 3.46 s⁻¹

**Q.** And the kcat/Km (purified protein [1])?
**A.** 828 M⁻¹ s⁻¹

**Q.** And the Km (purified protein [2])?
**A.** 18.81 (17.15, 20.85) mM

**Q.** What about the Vmax (purified protein [2]) of the same protein?
**A.** 0.0034 (0.0029, 0.0039)

**Q.** And the kcat (purified protein [2])?
**A.** 0.28 s⁻¹

**Q.** And the kcat/Km (purified protein [2])?
**A.** 15.1 M⁻¹ s⁻¹
